Experimental data as given in paper PMC9706453, “Abscisic acid-responsive transcription factors PavDof2/6/15 mediate fruit softening in sweet cherry”.

Key:
Assay in all cases: EMSA; Light Shift Chemiluminescent EMSA Kit (Beyotime); buffer, salt, pH and temperature not stated
Settings in all cases: protein: recombinant; tags: His (pET-30a(+)); label: biotin
PavDof6 = molecular target: T1, PavDof6 (Prunus avium (sweet cherry), UniProt A0A6P5RUY3 1-310)
T1 sequence: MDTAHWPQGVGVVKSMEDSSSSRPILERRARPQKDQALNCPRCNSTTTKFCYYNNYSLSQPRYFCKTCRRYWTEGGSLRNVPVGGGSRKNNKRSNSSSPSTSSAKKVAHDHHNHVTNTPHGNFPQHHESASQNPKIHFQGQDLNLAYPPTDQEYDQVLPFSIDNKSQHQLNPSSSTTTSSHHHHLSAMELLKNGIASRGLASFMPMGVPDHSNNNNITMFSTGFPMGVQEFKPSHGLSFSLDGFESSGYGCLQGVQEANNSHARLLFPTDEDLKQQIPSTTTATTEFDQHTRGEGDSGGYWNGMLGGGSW

PavDof15 = molecular target: T2, PavDof15 (Prunus avium (sweet cherry), UniProt A0A6P5S8Z2 1-327)
T2 sequence: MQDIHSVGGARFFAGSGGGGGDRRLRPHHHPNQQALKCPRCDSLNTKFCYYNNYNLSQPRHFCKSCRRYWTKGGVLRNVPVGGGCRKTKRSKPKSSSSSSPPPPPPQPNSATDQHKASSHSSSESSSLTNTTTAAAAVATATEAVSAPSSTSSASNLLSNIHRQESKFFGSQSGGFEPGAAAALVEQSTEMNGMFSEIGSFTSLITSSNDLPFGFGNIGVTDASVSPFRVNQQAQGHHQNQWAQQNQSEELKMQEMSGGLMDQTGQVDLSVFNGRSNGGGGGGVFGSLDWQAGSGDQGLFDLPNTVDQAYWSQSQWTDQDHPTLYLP

PavDof2 = molecular target: T3, PavDof2 (Prunus avium (sweet cherry), UniProt A0A6P5T378 1-263)
T3 sequence: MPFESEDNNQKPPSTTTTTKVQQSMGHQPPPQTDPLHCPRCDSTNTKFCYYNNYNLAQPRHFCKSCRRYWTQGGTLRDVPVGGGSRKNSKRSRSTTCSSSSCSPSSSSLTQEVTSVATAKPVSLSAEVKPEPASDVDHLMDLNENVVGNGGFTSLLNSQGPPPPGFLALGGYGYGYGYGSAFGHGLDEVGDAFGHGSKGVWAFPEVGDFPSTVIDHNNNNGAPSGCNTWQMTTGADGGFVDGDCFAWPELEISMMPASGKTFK

Measured: binding result

B1: PavXTH26 promoter probe (dsDNA)
DNA 1: AACATTCTTTTTGTAAATCAAGTAGTTAAAAGCATTTAC
DNA 2: GTAAATGCTTTTAACTACTTGATTTACAAAAAGAATGTT
binds: PavDof6 | PavDof15 | PavDof2

B2: PavXTH31 promoter probe (dsDNA)
DNA 1: TGCTTTTTTTTTTTTAAAGGATT
DNA 2: AATCCTTTAAAAAAAAAAAAGCA
binds: PavDof6 | PavDof15 | PavDof2

B3: PavPME44 promoter probe (dsDNA)
DNA 1: CTGCTTTTCTGAAAATTAAAGCAGTTTGGAGAAAAGTCC
DNA 2: GGACTTTTCTCCAAACTGCTTTAATTTTCAGAAAAGCAG
binds: PavDof6 | PavDof15 | PavDof2

B4: PavQRT3 promoter probe (dsDNA)
DNA 1: TTGAAAAGTTAGGAAAAAAGTTT
DNA 2: AAACTTTTTTCCTAACTTTTCAA
binds: PavDof6 | PavDof15 | PavDof2

B5: PavPL18 promoter probe (dsDNA)
DNA 1: CATAAAAAGAAATAAAATGAAAAGAAAAGTGA
DNA 2: TCACTTTTCTTTTCATTTTATTTCTTTTTATG
binds: PavDof6 | PavDof15 | PavDof2

B6: PavNCED1 promoter probe (Dof site) (dsDNA)
DNA 1: CTCAAAAGCTAGTTATATGGAAAAAGGGA
DNA 2: TCCCTTTTTCCATATAACTAGCTTTTGAG
binds: PavDof6 | PavDof15 | PavDof2
